Here are results for 13 molecules from patent publication US20240092867A1 (UNIVERSITY OF CHICAGO, published 2024).

T1: placental growth factor (PlGF)-2 (human, UniProt P49763-3 19-170)
T1 construct: mature; Purchased in mature form
T1 sequence (looked up): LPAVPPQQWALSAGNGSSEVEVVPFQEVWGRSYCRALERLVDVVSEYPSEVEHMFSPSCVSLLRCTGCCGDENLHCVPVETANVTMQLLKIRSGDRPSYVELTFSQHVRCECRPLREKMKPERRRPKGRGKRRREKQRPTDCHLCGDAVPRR

B1: α3 3043-3067 Scr2 (peptide)
peptide: RKTDALELVFLKKGGIGSKKCNDKR
notes: Scrambled peptide
B2: α3 3043-3067 Scr3 (peptide)
peptide: CRKKKRKKKALLLGIGDFNSEVTDG
notes: Scrambled peptide
B3: α3 3043-3067 Scr1 (peptide)
peptide: RLVKALKTDKFLGRIGSEKCNDKGK
notes: Scrambled peptide
B4: fibroblast growth factor (FGF)-18 (ligand, UniProt O76093 28-207, looked up)
chain: EENVDFRIHVENQTRARDDVSRKQLRLYQLYSRTSGKHIQVLGRRISARGEDGDKYAQLLVETDTFGSQVRIKGKETEFYLCMNRKGKLVGKPDGTSKECVFIEKVLENNYTALMSAKYSGWYVGFTKKGRPRKGPKTRENQQDVHFMKRYPKGQPELQKPFKYTTVTKRSRRIRPTHPA
notes: mature; Purchased in mature form
B5: TGF-β3 (ligand, UniProt P10600 301-412, looked up)
chain: ALDTNYCFRNLEENCCVRPLYIDFRQDLGWKWVHEPKGYYANFCSGPCPYLRSADTTHSTVLGLYNTLNPEASASPCCVPQDLEPLTILYYVGRTPKVEQLSNMVVKSCKCS
notes: as for B4
B6: bone morphogenetic protein (BMP)-2 (ligand, UniProt P12643 283-396, looked up)
chain: QAKHKQRKRLKSSCKRHPLYVDFSDVGWNDWIVAPPGYHAFYCHGECPFPLADHLNSTNHAIVQTLVNSVNSKIPKACCVPTELSAISMLYLDENEKVVLKNYQDMVVEGCGCR
notes: mature
B7: C-X-C motif ligand (CXCL)-11 (ligand, UniProt O14625 22-94, looked up)
chain: FPMFKRGRCLCIGPGVKAVKVADIEKASIMYPSNNCDKIEVIITLKENKGQRCLNPKSKQARLIIKKVERKNF
notes: as for B4
B8: fibroblast growth factor (FGF)-7 (ligand, UniProt P21781 32-194, looked up)
chain: CNDMTPEQMATNVNCSSPERHTRSYDYMEGGDIRVRRLFCRTQWYLRIDKRGKVKGTQEMKNNYNIMEIRTVAVGIVAIKGVESEFYLAMNKEGKLYAKKECNEDCNFKELILENHYNTYASAKWTHNGGEMFVALNQKGIPVRGKKTKKEQKTAHFLPMAIT
notes: as for B4
B9: neurotrophin (NT)-3 (ligand, UniProt P20783 139-257, looked up)
chain: YAEHKSHRGEYSVCDSESLWVTDKSSAIDIRGHQVTVLGEIKTGNSPVKQYFYETRCKEARPVKNGCRGIDDKHWNSQCKTSQTYVRALTSENNKLVGWRWIRIDTSCVCALSRKIGRT
notes: as for B4
B10: epidermal growth factor (EGF) (ligand, UniProt P01133 971-1023, looked up)
chain: NSDSECPLSHDGYCLHDGVCMYIEALDKYACNCVVGYIGERCQYRDLKWWELR
notes: as for B4
B11: brain-derived neurotrophic factor (BDNF) (ligand, UniProt P23560 129-247, looked up)
chain: HSDPARRGELSVCDSISEWVTAADKKTAVDMSGGTVTVLEKVPVSKGQLKQYFYETKCNPMGYTKEGCRGIDKRHWNSQCRTTQSYVRALTMDSKKRIGWRFIRIDTSCVCTLTIKRGR
notes: as for B4
B12: bone morphogenetic protein (BMP)-3 (ligand, UniProt P12645 363-472, looked up)
chain: QWIEPRNCARRYLKVDFADIGWSEWIISPKSFDAYYCSGACQFPMPKSLKPSNHATIQSIVRAVGVVPGIPEPCCVPEKMSSLSILFFDENKNVVLKVYPNMTVESCACR
notes: as for B4
B13: fibroblast growth factor (FGF)-10 (ligand, UniProt O15520 38-208, looked up)
chain: QALGQDMVSPEATNSSSSSFSSPSSAGRHVRSYNHLQGDVRWRKLFSFTKYFLKIEKNGKVSGTKKENCPYSILEITSVEIGVVAVKAINSNYYLAMNKKGKLYGSKEFNNDCKLKERIEENGYNTYASFNWQHNGRQMYVALNGKGAPRRGQKTRRKNTSAHFLPMVVHS
notes: as for B4

T2 sequence (P01127 82-190): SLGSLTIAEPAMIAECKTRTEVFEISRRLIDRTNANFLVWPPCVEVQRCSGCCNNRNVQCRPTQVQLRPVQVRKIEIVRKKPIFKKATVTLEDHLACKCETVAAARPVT

One assay has as its target T2, platelet-derived growth factor (PDGF)-BB (human, UniProt P01127 82-190).
T2 construct: mature; Purchased in mature form
The assay is described as follows: ELISA; peptide coated at 10 µg/mL, 1 µg/mL PDGF-BB in solution, bound GF detected with antibody [panel PDGF-BB]. The protocol: (§1) FIG. 9. […] Affinity of GFs against chemically synthesized peptides that are scrambled (Scr) the sequence of α3₃₀₄₃₋₃₀₆₂. ELISA plates were coated with 10 μg/mL laminin peptide and further incubated with VEGF-A165, PlGF-2, PDGF-BB, or FGF-2. Concentrations were 1 μg/mL for GFs. Bound GF was detected with a specific antibody for each GF (n=4, mean±SEM). Statistical analyses were done using one-way ANOVA. *p<0.05, **p<0.01. Sequence of the peptides are described in Table 2.
(§2) ELISA tests were performed as described above. […] 1 μg/mL of BSA served as non-binding protein control. After blocking with 2% BSA PBS-0.05% Tween 20 (PBS-T) solution, 1 μg/mL of the recombinant human proteins (VEGF-A121, VEGF-A165, PlGF-1, PlGF-2, PDGF-BB or FGF-2) or 10 μg/mL of biotinylated heparin (Sigma-Aldrich) were added. Bound GF was detected with biotinylated antibodies for human VEGF, PlGF, PDGF-BB, or FGF-2 (R&D Systems). The antibodies were detected by streptavidin-HRP (R&D Systems).
Background: ELISA stands for enzyme-linked immunosorbent assay.
As for B1, the binding result was “binds”.

Take B2: the binding result is on record as “binds”.

As for B3, the binding result is “binds”.

A further assay has as its target T3, human plasma-derived vWF (human, UniProt P04275 764-2813).
T3 construct: mature; also called plasma-derived purified vWF; von Willebrand factor
Nature of the assay: ELISA, GF coated 50 nM, vWF 1 µg/mL. The protocol: ELISA tests were performed as previously reported1. In brief, ELISA plates (med-binding, Greiner Bio-One) were coated with 50 nM GFs at 37° C. for 2 hrs. […] Then, HRP conjugated goat anti-rabbit antibody (Jackson ImmunoResearch) was added. After 60 min of incubation, 50 μL TMB substrate (Sigma-Aldrich) was added. The reaction was stopped by adding 25 μL of 2N H2SO4. Subsequently, the absorbance at 450 nm was measured and subtracted the absorbance at 570 nm.
With B4, the binding result is on record as “binds”.

For the molecule B5, the binding result is reported as “no binding”.

With B6, the binding result is listed as “binds”.

B7: the binding result is recorded as “binds”.

Consider B8, for which the binding result was “binds”.

Regarding B9, the binding result is “binds”.

For the molecule B10, the binding result is “no binding”.

In another assay the target is T4, vascular endothelial growth factor (VEGF)-A165 (human, UniProt P15692-4 27-191).
T4 construct: mature; Purchased in mature form, not glycosylated
T4 sequence (P15692 other isoform, or with tags, fused parts or gaps limits assumed): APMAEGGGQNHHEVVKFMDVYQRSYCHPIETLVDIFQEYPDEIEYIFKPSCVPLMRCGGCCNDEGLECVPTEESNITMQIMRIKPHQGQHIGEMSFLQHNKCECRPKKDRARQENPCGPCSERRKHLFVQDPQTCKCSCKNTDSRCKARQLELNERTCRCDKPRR
Nature of the assay: ELISA; peptide coated at 10 µg/mL, 1 µg/mL VEGF-A165 in solution, bound GF detected with antibody [panel VEGF-A165]. The protocol: as §1, §2
Regarding B1, the binding result was “binds”.

With B2, the binding result is “binds”.

Consider B3, for which the binding result is given as “binds”.

For the next assay, the target named is T1, placental growth factor (PlGF)-2. Nature of the assay: ELISA; peptide coated at 10 µg/mL, 1 µg/mL PlGF-2 in solution, bound GF detected with antibody [panel PlGF-2]. Here is the method:
as §1, §2
Consider B1, for which the binding result is recorded as “binds”.

As to B2, the binding result is “binds”.

Turning to B3, the binding result is “binds”.

A further assay deals with T5, fibroblast growth factor (FGF)-2 (human, UniProt P09038 143-288).
T5 construct: mature; Purchased in mature form
T5 sequence (P09038 143-288): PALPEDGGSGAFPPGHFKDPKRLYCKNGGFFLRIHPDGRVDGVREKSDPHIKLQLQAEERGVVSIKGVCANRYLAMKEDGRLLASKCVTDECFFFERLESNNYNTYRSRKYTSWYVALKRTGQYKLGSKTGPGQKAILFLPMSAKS
The assay is described as follows: ELISA; peptide coated at 10 µg/mL, 1 µg/mL FGF-2 in solution, bound GF detected with antibody [panel FGF-2]. Here is the method: as §1, §2
For B1, the binding result was “binds”.

Consider B2, for which the binding result is on record as “binds”.

With B3, the binding result is “binds”.

A further assay concerns the target T6, laminin-111 (human, UniProt P25391 18-3075; P07942 22-1786; P11047 34-1609).
T6 construct: Full-length recombinant human laminin isoform (BioLamina); Chain composition is read from the isoform name
The assay is described as follows: ELISA, GF coated, laminin 10 nM. Here is the method:
(§3) ELISA tests were performed as previously reported. In brief, ELISA plates (med-binding, Greiner Bio-One) were coated with 50 nM GFs at 37° C. for more than 2 hrs. […] Bound laminin was detected with rabbit anti-human laminin γ1 chain antibody (1:1000 dilution, Assay biotech) or rabbit anti-human laminin α3 chain antibody (1:1000 dilution, Assay biotech). After incubation with biotinylated anti-rabbit antibody for 60 min at room temperature (RT), HRP conjugated streptavidin (Jackson ImmunoResearch) was added. After 60 min of incubation at RT, 50 μL TMB substrate (Sigma-Aldrich) was added. The reactions were stopped by adding 25 μL of 2 N H₂SO₄. Subsequently, the absorbance at 450 nm was measured with a reference of 570 nm.
With B4, the binding result was “binds”.

With B11, the binding result is given as “binds”.

Take B6: the binding result was “binds”.

Turning to B12, the binding result is given as “binds”.

With B7, the binding result is “no binding (tested: A450 0.1)”.

On to B13, for which the binding result was “binds”.

For B8, the binding result is “binds”.

As to B9, the binding result was “binds”.

A further assay concerns the target T7, laminin-511 (human, UniProt O15230 36-3695; P07942 22-1786; P11047 34-1609).
T7 construct: Full-length recombinant human laminin isoform (BioLamina); chains read from the isoform name
Nature of the assay: ELISA, GF coated, laminin 10 nM. The protocol:
as §3
On to B4, for which the binding result is listed as “binds”.

Consider B11, for which the binding result is “binds”.

On to B6, for which the binding result is recorded as “binds”.

Take B12: the binding result was “binds”.

Take B7: the binding result was “no binding (tested: A450 0.1)”.

Turning to B13, the binding result was “binds”.

With B8, the binding result is reported as “binds”.

On to B9, for which the binding result is listed as “binds”.

The target of another assay is T8, laminin-521 (human, UniProt O15230 36-3695; P55268 33-1798; P11047 34-1609).
T8 construct: Full-length recombinant human laminin isoform (BioLamina); chains read from the isoform name
Nature of the assay: ELISA, GF coated, laminin 10 nM. The protocol: as §3
In the case of B4, the binding result was “binds”.

As for B11, the binding result is “binds”.

Consider B6, for which the binding result is on record as “binds”.

In the case of B12, the binding result is given as “binds”.

For B7, the binding result was “no binding (tested: A450 0.1)”.

With B13, the binding result is on record as “binds”.

On to B8, for which the binding result is recorded as “binds”.

Consider B9, for which the binding result was “binds”.

The next assay has as its target T9, laminin-421 (human, UniProt Q16363 25-1823; P55268 33-1798; P11047 34-1609).
T9 construct: Full-length recombinant human laminin isoform (BioLamina); chains read from the isoform name
Nature of the assay: ELISA, GF coated, laminin 10 nM. The protocol: as §3
For B4, the binding result is reported as “binds”.

For B11, the binding result was “binds”.

Regarding B6, the binding result is “binds”.

Turning to B12, the binding result is given as “binds”.

Consider B7, for which the binding result is recorded as “no binding (tested: A450 0.1)”.

On to B13, for which the binding result was “binds”.

For B8, the binding result is “binds”.

On to B9, for which the binding result is listed as “binds”.

The next assay addresses T10, laminin-211 (human, UniProt P24043 23-3122; P07942 22-1786; P11047 34-1609).
T10 construct: Full-length recombinant human laminin isoform (BioLamina); chains read from the isoform name
The assay is described as follows: ELISA, GF coated, laminin 10 nM. Here is the method:
as §3
Regarding B4, the binding result was “binds”.

For the molecule B11, the binding result was “binds”.

Regarding B6, the binding result was “binds”.

Consider B12, for which the binding result was “binds”.

B7: the binding result is “no binding (tested: A450 0.1)”.

In the case of B13, the binding result is on record as “binds”.

Take B8: the binding result was “binds”.

Turning to B9, the binding result is reported as “binds”.

Another assay deals with T11, laminin-411 (human, UniProt Q16363 25-1823; P07942 22-1786; P11047 34-1609).
T11 construct: Full-length recombinant human laminin isoform (BioLamina); chains read from the isoform name
Nature of the assay: ELISA, GF coated, laminin 10 nM. The protocol:
as §3
Regarding B4, the binding result is on record as “binds”.

With B11, the binding result was “binds”.

Turning to B6, the binding result was “binds”.

Regarding B12, the binding result is recorded as “binds”.

For B7, the binding result was “no binding (tested: A450 0.1)”.

For B13, the binding result is listed as “binds”.

Take B8: the binding result was “binds”.

B9: the binding result is “binds”.
